Measurements taken from the supplement of paper PMC9112550, “Optimization of the antimicrobial peptide Bac7 by deep mutational scanning” (BMC Biology, 2022).

System: Escherichia coli TOP10
Assay: shrunken log2 fold change of peptide-encoding DNA abundance (4.5 h post-induction vs induction); higher = less antimicrobial activity (less host growth inhibition)
Details: time post-induction: 4.5 h; library: site-saturation at positions 5, 18, 19, 20
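Note: peptides expressed intracellularly from a pBAD plasmid library in pooled LB shake-flask culture, induced with 0.3% L-arabinose, DNA abundance read by NGS, three biological replicates, DESeq2 with apeglm shrinkage.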

Sequence	shrunken log2 fold change
RRIRIRPPRLPRPRPRPCPDPRP	-0.127
RRIRMRPPRLPRPRPRPDFSPRP	0.0199
RRIRYRPPRLPRPRPRPEGYPRP	-0.01
RRIRFRPPRLPRPRPRPSWVPRP	-0.393
RRIRKRPPRLPRPRPRPPFPPRP	0.582
RRIRNRPPRLPRPRPRPRTQPRP	0.11
RRIRIRPPRLPRPRPRPQKAPRP	0.0173
RRIRERPPRLPRPRPRPYAAPRP	-0.368
RRIRVRPPRLPRPRPRPAAVPRP	0.114
RRIRYRPPRLPRPRPRPTAAPRP	0.111
RRIRWRPPRLPRPRPRPRRRPRP	1.3
RRIRLRPPRLPRPRPRPVQEPRP	-0.0609
RRIRGRPPRLPRPRPRPTVGPRP	0.832
RRIRPRPPRLPRPRPRPMFQPRP	-0.241
RRIRFRPPRLPRPRPRPTLYPRP	-0.189
RRIRNRPPRLPRPRPRPFILPRP	-0.634
RRIRTRPPRLPRPRPRPMHCPRP	-0.235
RRIRGRPPRLPRPRPRPPGSPRP	1.09
RRIRQRPPRLPRPRPRPPSLPRP	0.149
RRIRMRPPRLPRPRPRPSAAPRP	2.7
RRIRTRPPRLPRPRPRPHAFPRP	-0.128
RRIRMRPPRLPRPRPRPQDRPRP	0.179
RRIRGRPPRLPRPRPRPANNPRP	0.138
RRIRWRPPRLPRPRPRPKPPPRP	0.821
RRIRGRPPRLPRPRPRPKKMPRP	0.572

Sequence	shrunken log2 fold change
RRIRSRPPRLPRPRPRPSDHPRP	-0.555
RRIRMRPPRLPRPRPRPGGGPRP	1.67
RRIRFRPPRLPRPRPRPRWEPRP	0.025
RRIRHRPPRLPRPRPRPEYPPRP	0.0664
RRIRERPPRLPRPRPRPKYAPRP	0.0159
RRIRRRPPRLPRPRPRPWFEPRP	0.0607
RRIRRRPPRLPRPRPRPISSPRP	0.0497
RRIRCRPPRLPRPRPRPINYPRP	-0.271
RRIRVRPPRLPRPRPRPYDGPRP	-0.00822
RRIRNRPPRLPRPRPRPRNTPRP	-0.505
RRIRGRPPRLPRPRPRPTALPRP	1.12
RRIRTRPPRLPRPRPRPNEQPRP	-0.0135
RRIRVRPPRLPRPRPRPSYPPRP	-0.392
RRIRLRPPRLPRPRPRPFYDPRP	0.00534
RRIRERPPRLPRPRPRPTGDPRP	0.321
RRIRQRPPRLPRPRPRPPRHPRP	0.644
RRIRRRPPRLPRPRPRPWRPPRP	0.734
RRIRSRPPRLPRPRPRPDIKPRP	-0.336
RRIRIRPPRLPRPRPRPYIGPRP	-0.775
RRIRHRPPRLPRPRPRPFVHPRP	-0.836
RRIRFRPPRLPRPRPRPSHAPRP	-0.149
RRIRDRPPRLPRPRPRPSVIPRP	0.0683
RRIRNRPPRLPRPRPRPQYQPRP	-0.317
RRIRTRPPRLPRPRPRPGHLPRP	-0.377
RRIRLRPPRLPRPRPRPHFGPRP	0.0847

Sequence	shrunken log2 fold change
RRIRWRPPRLPRPRPRPGVYPRP	0.221
RRIRYRPPRLPRPRPRPGDAPRP	0.0773
RRIRMRPPRLPRPRPRPQADPRP	0.639
RRIRRRPPRLPRPRPRPHYFPRP	-0.173
RRIRMRPPRLPRPRPRPMMQPRP	-0.00112
RRIRLRPPRLPRPRPRPLIEPRP	0.0414
RRIRRRPPRLPRPRPRPMVQPRP	-0.00615
RRIRERPPRLPRPRPRPCCDPRP	-0.362
RRIRSRPPRLPRPRPRPWKFPRP	-0.176
RRIRNRPPRLPRPRPRPHKPPRP	-0.368
RRIRFRPPRLPRPRPRPAMGPRP	0.119
RRIRPRPPRLPRPRPRPTVLPRP	-0.225
RRIRDRPPRLPRPRPRPTMHPRP	0.61
RRIRFRPPRLPRPRPRPTDIPRP	0.0284
RRIRSRPPRLPRPRPRPDYLPRP	-0.0749
RRIRKRPPRLPRPRPRPSLNPRP	-0.0764
RRIRQRPPRLPRPRPRPEYIPRP	-0.00306
RRIRPRPPRLPRPRPRPSRMPRP	-0.114
RRIRGRPPRLPRPRPRPPEYPRP	0.448
RRIRHRPPRLPRPRPRPTRTPRP	0.365
RRIRFRPPRLPRPRPRPTMPPRP	0.0787
RRIRHRPPRLPRPRPRPYLCPRP	-0.0059
RRIRKRPPRLPRPRPRPHPNPRP	0.135
RRIRYRPPRLPRPRPRPFFMPRP	-0.71
RRIRPRPPRLPRPRPRPVPRPRP	0.531

Sequence	shrunken log2 fold change
RRIRRRPPRLPRPRPRPYNSPRP	-0.573
RRIRWRPPRLPRPRPRPMIYPRP	-0.542
RRIRTRPPRLPRPRPRPNKTPRP	-0.0171
RRIRIRPPRLPRPRPRPYFDPRP	-0.711
RRIRFRPPRLPRPRPRPDIMPRP	-0.06
RRIRKRPPRLPRPRPRPHPWPRP	0.353
RRIRNRPPRLPRPRPRPVRNPRP	0.178
RRIRHRPPRLPRPRPRPPYHPRP	-0.495
RRIRMRPPRLPRPRPRPRTQPRP	0.97
RRIRLRPPRLPRPRPRPGLQPRP	-0.166
RRIRERPPRLPRPRPRPIMCPRP	-0.275
RRIRDRPPRLPRPRPRPFFDPRP	0.266
RRIRQRPPRLPRPRPRPVMMPRP	-0.335
RRIRGRPPRLPRPRPRPCPQPRP	0.654
RRIRARPPRLPRPRPRPFLGPRP	0.0605
RRIRPRPPRLPRPRPRPAWEPRP	0.216
RRIRYRPPRLPRPRPRPCGWPRP	-0.00979
RRIRVRPPRLPRPRPRPVHHPRP	-0.199
RRIRYRPPRLPRPRPRPLEWPRP	0.00157
RRIRNRPPRLPRPRPRPYPMPRP	0.133
RRIRNRPPRLPRPRPRPKMFPRP	-0.00426
RRIRMRPPRLPRPRPRPATQPRP	1.14
RRIRQRPPRLPRPRPRPCDNPRP	-0.269
RRIRHRPPRLPRPRPRPEGGPRP	-0.0289
RRIRQRPPRLPRPRPRPNHPPRP	-0.249

Sequence	shrunken log2 fold change
RRIRDRPPRLPRPRPRPSFIPRP	-0.572
RRIRIRPPRLPRPRPRPIFYPRP	-0.775
RRIRVRPPRLPRPRPRPEGGPRP	0.747
RRIRTRPPRLPRPRPRPLRYPRP	-0.255
RRIRIRPPRLPRPRPRPKPAPRP	0.243
RRIRDRPPRLPRPRPRPHTNPRP	-0.367
RRIRYRPPRLPRPRPRPFNIPRP	-0.973
RRIRQRPPRLPRPRPRPKRTPRP	0.00512
RRIRHRPPRLPRPRPRPQRCPRP	-0.00202
RRIRCRPPRLPRPRPRPYHIPRP	-0.27
RRIRSRPPRLPRPRPRPDGVPRP	-0.115
RRIRRRPPRLPRPRPRPLSMPRP	0.263
RRIRKRPPRLPRPRPRPSCGPRP	0.817
RRIRPRPPRLPRPRPRPPTIPRP	-0.148
RRIRQRPPRLPRPRPRPYGNPRP	-0.0235
RRIRCRPPRLPRPRPRPHCWPRP	-0.0254
RRIRARPPRLPRPRPRPKGWPRP	0.862
RRIRMRPPRLPRPRPRPVNFPRP	-0.114
RRIRNRPPRLPRPRPRPKGWPRP	0.439
RRIRYRPPRLPRPRPRPYWTPRP	-0.00804
RRIRYRPPRLPRPRPRPNEKPRP	-0.0256
RRIRVRPPRLPRPRPRPKHYPRP	-0.459
RRIRWRPPRLPRPRPRPLADPRP	1.06
RRIRSRPPRLPRPRPRPYTIPRP	-0.808
RRIRSRPPRLPRPRPRPNDPPRP	-0.619

Sequence	shrunken log2 fold change
RRIRLRPPRLPRPRPRPEMAPRP	0.113
RRIRQRPPRLPRPRPRPQISPRP	-0.159
RRIRFRPPRLPRPRPRPQHKPRP	-0.51
RRIRPRPPRLPRPRPRPHCLPRP	-0.374
RRIRWRPPRLPRPRPRPYQKPRP	-0.0398
RRIRNRPPRLPRPRPRPFHKPRP	-0.107
RRIRLRPPRLPRPRPRPQKFPRP	0.0452
RRIRERPPRLPRPRPRPTRNPRP	0.22
RRIRWRPPRLPRPRPRPDWGPRP	-0.0819
RRIRARPPRLPRPRPRPFRRPRP	-0.0278
RRIRDRPPRLPRPRPRPTYSPRP	-0.757
RRIRVRPPRLPRPRPRPVGHPRP	-0.166
RRIRVRPPRLPRPRPRPNDIPRP	-0.235
RRIRPRPPRLPRPRPRPNAAPRP	0.237
RRIRIRPPRLPRPRPRPSKNPRP	-0.76
RRIRWRPPRLPRPRPRPMHEPRP	-0.0461
RRIRPRPPRLPRPRPRPKIQPRP	0.0394
RRIRFRPPRLPRPRPRPNNQPRP	-0.559
RRIRLRPPRLPRPRPRPVMTPRP	-0.148
RRIRSRPPRLPRPRPRPMQVPRP	-0.064
RRIRRRPPRLPRPRPRPFSLPRP	0.0919
RRIRGRPPRLPRPRPRPQAPPRP	0.662
RRIRARPPRLPRPRPRPAEDPRP	1.19
RRIRMRPPRLPRPRPRPRAAPRP	3.2
RRIRIRPPRLPRPRPRPISRPRP	-0.0044
